In assay [1] the target is T1, TROP2 on TROP2-positive NCI-H1975 cells (human, UniProt P09758 27-323).
T1 construct: Endogenous TROP2 of the human NCI-H1975 cell line; also called TACSTD2
T1 sequence: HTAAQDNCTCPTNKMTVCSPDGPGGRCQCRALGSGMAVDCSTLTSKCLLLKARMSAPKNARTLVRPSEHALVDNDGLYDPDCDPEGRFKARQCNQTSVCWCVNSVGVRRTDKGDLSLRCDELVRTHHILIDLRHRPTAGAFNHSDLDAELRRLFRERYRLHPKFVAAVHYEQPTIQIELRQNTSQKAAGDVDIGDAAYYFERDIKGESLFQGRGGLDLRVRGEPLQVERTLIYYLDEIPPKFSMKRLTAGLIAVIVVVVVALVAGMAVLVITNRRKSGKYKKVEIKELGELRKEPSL
Description: binding to NCI-H1975 cells at pH 6.4, maximal MFI.

Assay [2] concerns the target T2, Human TROP2 Protein, His Tag, Acro Biosystems (human, UniProt P09758 27-274).
T2 construct: Bought protein; not shown: His tag
T2 sequence: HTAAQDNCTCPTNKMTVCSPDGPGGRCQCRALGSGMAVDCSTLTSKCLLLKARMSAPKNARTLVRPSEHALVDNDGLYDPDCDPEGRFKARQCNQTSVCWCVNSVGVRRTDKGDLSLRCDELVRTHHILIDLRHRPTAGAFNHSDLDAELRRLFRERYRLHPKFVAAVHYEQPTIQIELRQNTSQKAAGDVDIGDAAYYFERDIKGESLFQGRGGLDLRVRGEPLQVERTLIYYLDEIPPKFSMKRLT
Description: Octet (BLI). In general terms: BLI is a label-free optical method that tracks binding on a fibre tip over time.

Assay [3] has as its target T3, Human TROP2 Protein, His Tag (Acro Biosystems) (human, UniProt P09758 27-274).
T3 construct: not shown: His tag
T3 sequence (looked up): T2 sequence
Description: BLI (Octet).

For assay [4], the target named is T1, TROP2 on TROP2-positive NCI-H1975 cells. The assay is described as follows: cell-based or functional assay.
In assay [5] the target is T4, Human TROP2 Protein, His Tag (Acro Biosystems) (human, UniProt P09758 27-274).
T4 construct: also called TACSTD2; not shown: His tag
T4 sequence (looked up): T2 sequence
Description: BLI (Octet) [2/2].

For assay [6], the target named is T5, Human TROP2 Protein, His Tag (Acro Biosystems) (human, UniProt P09758 27-274).
T5 construct: Soluble analyte of the Octet assay; also called TACSTD2; not shown: His tag
T5 sequence (looked up): T2 sequence
Description: BLI (Octet), IgG on anti-human Fc sensor, soluble TROP2; grade 2 = No change vs parent. How it is done:
After allowing for four days of protein expression, cell culture supernatants were collected, quantified by SDS-PAGE analysis (DNS), and the pH dependence of the variant was evaluated using biolayer interferometry (BLI) on an Octet RED 96e instrument. Briefly, cell culture supernatants were diluted based on qualitative expression level of the variant determined by visual examination of SDS-PAGE gels, 5 μL of cell culture supernatant was diluted into 195 μL of 1×PBST, pH 7.4 for high expressors, 25 μL of cell culture supernatant was diluted into 175 μL of 1×PBST, pH 7.4 for medium expressors and 100 μL of cell culture supernatant was diluted into 100 μL of 1×PBST, pH 7.4 for low expressors for loading onto the sensor tips. The resulting diluted supernatants were then captured on an anti-human Fc sensor (Forte Bio). A baseline was established using 1×PBST (50 mM Potassium Phosphate Buffer+150 mM NaCl+0.05% Tween 20) pH 7.4, and the sensor was associated with 50 nM of TROP2 (Human TROP2 Protein, His Tag, Acro Biosystems) in 1×PBST pH 7.4 for 120 sec to generate an association curve. In the dissociation phase, the antibody-antigen complex on the sensor was exposed to 1×PBST pH 7.4 or pH 5.4, for 300 sec. Association and dissociation phase curves were examined for the starting ABPC antibody (with no substitutions) and each corresponding antibody variant at pH 5.4 and pH 7.4 to inform on two criteria: a) enhanced dissociation (i.e., higher koff values) at pH 5.4 due to histidine or alanine substitution compared to the starting ABPC, (with no substitutions), and b) reduced dissociation at pH 7.4 (i.e., lower koff values) compared to pH 5.4 in the antibody variant itself and with the starting ABPC (with no substitutions). […] It was also noted that while some mutations obliterated TROP2 binding, others were tolerated with little or n change in TROP2 binding kinetics.

For assay [7], the target named is T6, Human TROP2 Protein, His Tag (human, UniProt P09758 27-274).
T6 construct: Bought protein; also called TACSTD2; not shown: His tag
T6 sequence (looked up): T2 sequence
Description: BLI (Octet) [1/2]. The gist of the method:
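Antibody variants from day-4 expression supernatants, diluted in 1×PBST pH 7.4 by expression level, captured on anti-human Fc tips. Association with 50 nM human TROP2-His in PBST pH 7.4 for 120 sec; dissociation in PBST pH 7.4 or pH 5.4 for 300 sec. Curves examined for koff at each pH versus parent antibody.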

In assay [8] the target is T7, Human TROP2 Protein, His Tag (Acro Biosystems) (human, UniProt P09758 27-274).
T7 construct: not shown: His tag
T7 sequence (looked up): T2 sequence
The assay is described as follows: BLI (Octet). This is another data set of the same source.

Substitutions are numbered along the chain they refer to.

Broadly, the Kd is the concentration at which binding is half-saturated. Higher therefore signals lower affinity.

B1: MYT11566 (WT sacituzumab variable regions) (antibody, human IgG1, V domains shown)
VH: QVQLQQSGSELKKPGASVKVSCKASGYTFTNYGMNWVKQAPGQGLKWMGWINTYTGEPTYTDDFKGRFAFSLDTSVSTAYLQISSLKADDTAVYFCARGGFGSSYWYFDVWGQGSLVTVSS
VL: DIQLTQSPSSLSASVGDRVSITCKASQDVSIAVAWYQQKPGKAPKLLIYSASYRYTGVPDRFSGSGSGTDFTLTISSLQPEDFAVYYCQQHYITPLTFGAGTKVEIK
notes: Human IgG1 heavy chain constant domain and Kappa light chain constant domain; also called Sacituzumab WT
Regarding B1, the “Max MFI (@ pH 6.4)-H1975” value in assay [1] worked out at 29500 MFI. In assay [2], this molecule displayed a Kd of 0.6 nM.

B2: MYT12406 (antibody, V domains shown)
VH: QVQLVQSGAEVKKPGASVKVSCKASGYTFTTAGMQWVRQAPGQGLEWMGWINTHSGVPKYAEDFKGRVTISADTSTSTAYLQLSSLKSEDTAVYYCARSGFGSSYWYFDVWGQGTLVTVSS
VL: B1 VL with L4M, S20T, I31T, A51H, D60S, Q89H, Y92H, A100Q, V104L
notes: datopotamab VL 51, 89, 92 substituted
In the case of B2, the binding result in assay [3] is “no binding (tested: 50 nM)”.

B3: 112-DXd (antibody, IgG1, V domains shown)
VH: B2 VH
VL: B1 VL with L4M, S20T, I31T, D60S, A100Q, V104L
modifications: maleimide based GGFG-DXd conjugated to hinge cysteines, average DAR of about 4
As to B3, in assay [4], the “% efficiency @ 100 nM ADC (cytotoxicity in NCI-H1975 cells)” value (from here on “% efficiency @ 100 nM ADC”) is -1.22%.

B4: MYT12407 (antibody, V domains shown)
VH: B2 VH
VL: B1 VL with L4M, S20T, I31T, S52H, D60S, Q89H, Y92H, A100Q, V104L
notes: datopotamab VL 52, 89, 92 substituted
B4: in assay [3], the binding result is “no binding (tested: 50 nM)”.

B5: MYT13252 (antibody, V domains shown)
VH: B1 VH with D63H
VL: B1 VL with S52H, I93H
notes: Sacituzumab HC-LC pairing variant
Consider B5, for which, in assay [5], the binding result is given as “binds”.

B6: MYT13203 (antibody, V domains shown)
VH: B1 VH with D62H
VL: B1 VL with Q89H
notes: Sacituzumab HC-LC pairing variant; IgG
As for B6, the binding result in assay [6] is “binds”.

B7: MYT11680 (antibody, V domains shown)
VH: B2 VH
VL: B1 VL with L4M, S20T, Q27H, I31T, D60S, A100Q, V104L
notes: IgG from supernatant; His at LCV position 27; also called datopotamab variant L1 04
In the case of B7, in assay [7], the binding result is recorded as “binds”.

B8: MYT13187 (antibody, V domains shown)
VH: B1 VH with D62H
VL: B1 VL with S52H
notes: as for B6
In the case of B8, the binding result in assay [6] is reported as “binds”.

B9: MYT13254 (antibody, V domains shown)
VH: B1 VH with K65H
VL: B1 VL with S52H, I93H
notes: as for B5
In the case of B9, the binding result in assay [5] is reported as “binds”.

B10: MYT12405 (antibody, V domains shown)
VH: B2 VH
VL: B1 VL with L4M, S20T, I31T, A51H, S52H, D60S, Y92H, A100Q, V104L
notes: datopotamab VL 51, 52, 92 substituted
As for B10, the binding result in assay [3] was “no binding (tested: 50 nM)”.

B11: MYT13253 (antibody, V domains shown)
VH: B1 VH with F64H
VL: B1 VL with S52H, I93H
notes: as for B5
For the molecule B11, the binding result in assay [5] is “binds”.

B12: MYT13199 (antibody, V domains shown)
VH: B1 VH with G66H
VL: B1 VL with Y53H
notes: as for B6
For the molecule B12, in assay [6], the binding result is “binds”.

B13: MYT13255 (antibody, V domains shown)
VH: B1 VH with G66H
VL: B1 VL with S52H, I93H
notes: as for B5
For the molecule B13, in assay [5], the binding result is “binds”.

B14: MYT13198 (antibody, V domains shown)
VH: B1 VH with K65H
VL: B1 VL with Y53H
notes: as for B6
For the molecule B14, the binding result in assay [6] is “binds”.

B15: MYT11679 (antibody, V domains shown)
VH: B2 VH
VL: B1 VL with L4M, S20T, S26H, I31T, D60S, A100Q, V104L
notes: IgG from supernatant; His at LCV position 26; also called datopotamab variant L1 03
As to B15, the binding result in assay [7] is “binds”.

B16: MYT11678 (antibody, V domains shown)
VH: B2 VH
VL: B1 VL with L4M, S20T, A25H, I31T, D60S, A100Q, V104L
notes: IgG from supernatant; His at LCV position 25; also called datopotamab variant L1 02
Regarding B16, in assay [7], the binding result is on record as “binds”.

B17: 170-DXd (antibody, IgG1, V domains shown)
VH: QVQLQESGPGLVKPSETLSLTCTVSGGSISSYGVHWIRQPPGKGLEWIGVIWTSGVTDYNSALMGRVTISVDTSKNQFSLKLSSVTAADTAVYYCARDGDYDRYTMDYWGQGTLVTVSS
VL: DIVMTQSPDSLAVSLGERATINCRASKSVSTSGYSYMHWYQQKPGQPPKLLIYLASNLHSGVPDRFSGSGSGTDFTLTISSLQAEDVAVYYCHHSRHLPYTFGQGTKLEIK
modifications: maleimide based GGFG-DXd conjugated to hinge cysteines, average DAR of about 4
On to B17, for which, in assay [4], the “% efficiency @ 100 nM ADC” value is 5.39%.

B18: 169-DXd (antibody, IgG1, V domains shown)
VH: B17 VH
VL: B17 VL with H59E, H93Q, H97E
modifications: maleimide based GGFG-DXd conjugated to hinge cysteines, average DAR of about 4
For B18, the “% efficiency @ 100 nM ADC” value in assay [4] is -3.5%.

B19: MYT13315 (antibody, V domains shown)
VH: B17 VH with M106H
VL: B17 VL with H93Q, H97E, T101H
notes: Full-length IgG from Expi293 supernatant; also called hu7E6SVG heavy chain and light chain pairing variant
As to B19, in assay [8], the binding result was “no binding (tested: 50 nM)”.

B20: MYT13310 (antibody, V domains shown)
VH: B17 VH with M106H
VL: B17 VL with H93Q, H94A, H97E
notes: as for B19
For the molecule B20, the binding result in assay [8] is reported as “no binding (tested: 50 nM)”.

B21: MYT13305 (antibody, V domains shown)
VH: B17 VH with M106H
VL: B17 VL with H59E, H93Q, H97E, T101H
notes: as for B19
B21: the binding result in assay [8] was “no binding (tested: 50 nM)”.

B22: MYT13295 (antibody, V domains shown)
VH: B17 VH with M106H
VL: B17 VL with H59E, H93Q, H94A, H97E
notes: as for B19
As to B22, the binding result in assay [8] is “no binding (tested: 50 nM)”.

Source of the values: US20260274985A1 (MYTHIC THERAPEUTICS, published 2026).
